Patent publication US20260116991A1 (HAINAN SIMCERE ZAIMING PHARMACEUTICAL, published 2026)
Where two headings read alike, the source gives them in different places.

Columns and labels:
human GPC3-His protein [1] = target: T1, human GPC3-His protein (human, UniProt P51654 25-559, limits assumed); assay: SPR, antibody captured on Protein A chip, human GPC3-His injected, 1:1 Langmuir model;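 note: flow cell at 25 °C, antigen injected for 240 s at five twofold dilutions starting at 200 nM, dissociation followed up to 600 s, double-referenced sensorgrams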
T1 construct: also called human GPC3 protein; not shown: His tag

[2] = target: T2, monkey GPC3 on HEK293T-monkey GPC3 cells (monkey); assay: FACS on HEK293T-monkey GPC3 cells
T2 construct: whole, on cells

monkey GPC3-His protein [3] = target: T3, monkey GPC3-His protein (monkey); assay: ELISA, monkey GPC3-His coated;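 note: Plate-coated antigen at 1 µg/mL, antibody binding 2 h at 37 °C, detected with HRP-labeled secondary antibody and TMB, absorbance at 450 nm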
T3 construct: Bought recombinant protein; also called monkey GPC3 protein

human GPC3-His protein [4] = target: T4, human GPC3-His protein (human, UniProt P51654 25-559); assay: SPR, antibody captured on Protein A chip, human GPC3-His analyte;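 note: measured at 25 °C flow cell, human GPC3-His injected at five concentrations up to 200 nM, 240 s association, up to 600 s dissociation, double-referenced, fitted to Langmuir 1:1 model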
T4 construct: also called human GPC3 protein; not shown: His tag

monkey GPC3-His protein [5] = target: T3, monkey GPC3-His protein; assay: SPR, antibody captured on Protein A chip, monkey GPC3-His analyte;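 note: run at 25 °C with 240 s association and up to 600 s dissociation, double-referenced, kinetics fitted to a 1:1 Langmuir binding model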
Protocol: The flow cell was set at 25° C. The sample block was set at 16° C. Both were pretreated with the running buffer. In each cycle, first, the antibody to be tested was captured using the Protein A chip, and then a single concentration of GPC3 antigen protein was injected. […] The association was determined by injecting different concentrations of human GPC3-His in the solution and maintaining for 240 s, wherein the flow rate was 30 μL/min, and the protein was diluted at a 1:1 dilution ratio from 200 nM to obtain 5 concentrations in total. The dissociation phase was monitored for up to 600 s and triggered by switching from the sample solution to the running buffer. The surface was regenerated by washing with 10 mM glycine solution (pH 1.5) at a flow rate of 30 μL/min for 30 s. The difference in bulk refractive index was corrected by subtracting the responses obtained from the goat anti-human Fc surface. Blank injections (double reference) were also subtracted. To calculate the apparent KD and other kinetic parameters, the Langmuir 1:1 model was used.

[6] = target: T5, monkey GPC3 on HEK293T-monkey GPC3 cells (monkey); assay: FACS on HEK293T-monkey GPC3 cells; remark: listed apart in the source
T5 construct: whole, on cells
Protocol: The desired cells were expanded to a logarithmic growth phase in a T-75 cell culture flask, the medium was removed by pipetting, and the cells were washed twice with a PBS buffer, and digested with trypsin. Then a complete medium was added to stop the digestion, and the cells were blown into a single cell suspension. After counting, the cells were centrifuged, and the cell pellet was resuspended with an FACS buffer (PBS+2% fetal bovine serum) to 2×10⁶ cells/mL. The cell resuspension solution was added to a 96-well FACS reaction plate at 50 μl/well, and a chimeric antibody sample to be tested was added at 50 μl/well for incubation at 4° C. for 1 h. […] After the plate was centrifuged and washed 3 times with a PBS buffer, 100 μl of the resulting solution was assayed and analyzed by FACS (FACS Canto™, purchased from BD Biosciences). Data analysis was performed by software (FlowJo) to obtain the mean fluorescence intensity (MFI) of the cells. Then, analysis was performed by software (GraphPad Prism8), data were fitted, and EC₅₀ values were calculated.

Kd (human GPC3-His protein [1]) [nM]	koff (human GPC3-His protein [1]) [s⁻¹]	kon (human GPC3-His protein [1]) [M⁻¹ s⁻¹]	EC50 [2] [nM]	Max MFI [2] [MFI]	OD450 at 0.0001 nM (monkey GPC3-His protein [3]) [OD450]	OD450 at 0.001 nM (monkey GPC3-His protein [3]) [OD450]	OD450 at 0.01 nM (monkey GPC3-His protein [3]) [OD450]	OD450 at 0.1 nM (monkey GPC3-His protein [3]) [OD450]	OD450 at 1 nM (monkey GPC3-His protein [3]) [OD450]	OD450 at 10 nM (monkey GPC3-His protein [3]) [OD450]	OD450 at 100 nM (monkey GPC3-His protein [3]) [OD450]	Kd (human GPC3-His protein [4]) [nM]	koff (human GPC3-His protein [4]) [s⁻¹]	kon (human GPC3-His protein [4]) [M⁻¹ s⁻¹]	Kd (monkey GPC3-His protein [5]) [nM]	koff (monkey GPC3-His protein [5]) [s⁻¹]	kon (monkey GPC3-His protein [5]) [M⁻¹ s⁻¹]	EC50 [6] [nM]	Max MFI [6] [MFI]	Binder
19.2	0.0101	526000	1.41	33100																hAb001H2L1b (antibody, human IgG1, V domains shown, Humanized F2.169.2) VH: EVQLVESGGGLVQPGGSLRLSCAASGFSFNTNAMNWVRQAPGKGLEWVGRIRSKSNNYATYYADSVKDRFTISRDDSKSSLYLQMNSLKTEDTAVYYCVRDGYYVLFAYWGQGTLVTVSS VL: DIVMTQTPLSLPVTPGEPASISCRFSQSIVNSNANTYLEWFLQKPGQSPQLLIYKVSNRFSGVPDRFSGSGSGTDFTLKISRVEAEDVGVYYCFQGSHVPFTFGQGTKLEIK
4.3	0.000678	158000	1.65	32800																hAb006LH2L1 (antibody, human IgG1, V domains shown, Humanized F3.38.7) VH: EVQLVQSGAEVKKPGSSVKVSCKASGYTFTDYEIHWVRQAPGQGLEWMGAIDPKTGNTAYNQKFMGRVTITADKSTSTAYMELSSLRSEDTAVYYCTRYFSFAYWGQGTLVTVSS VL: DIVMTQTPLSLPVTPGEPASISCRSSQTFVHSNGNTYLQWYLQKPGQSPQLLIYKVSNRFSGVPDRFSGSGSGTDFTLKISRVEAEDVGVYYCFQGSHVPYTFGQGTKLEIK
27	0.0701	2.6e+06	1	34000																hAb001H1aL1 (antibody, human IgG1, V domains shown, Humanized F2.169.2) VH: EVQLVESGGGLVQPGGSLRLSCAASGFSFNTNAMNWVRQAPGKGLEWVGRIRSKSNNYATYYADSVKGRFTISRDDSKNSLYLQMNSLKTEDTAVYYCVRDGYYVLFAYWGQGTLVTVSS VL: DIVMTQTPLSLPVTPGEPASISCRFSQSIVNSNGNTYLEWFLQKPGQSPQLLIYKVSNRFSGVPDRFSGSGSGTDFTLKISRVEAEDVGVYYCFQGSHVPFTFGQGTKLEIK
					0.27	0.07	0.18	0.89	1.38	1.88	1.5	2.34	0.000461	197000	1.38	0.000587	425000	1.21	50500	F4.26.1 (antibody, human IgG1, kappa, V domains shown, Human-murine chimeric antibody) VH: QVQLKQSGPGLVQPSQSLSITCTVSGFSLTSYGVHWVRQSPGKGLEWLGVIWSSGNTDYNAVLISRLSIKKDDSKSQVFFKMNSPQVDDSAIYYCGRNGGWLLRGFMDFWGQGTSVTVSS VL: DVVMTQTPLSLPVSLGDQASISCRSSQSLLHSNGNTYLHWYLQRSGQSPNLLIYKVSNRFSGVPDRFSGGGSGTDFTLKISRVEAEDLGIYFCSQSTHVPWTFGGGTKLEIKR
					0.14	0.12	0.14	0.85	0.77	1.32	1.9	5.08	0.000443	87100	4.65	0.000552	119000	0.89	52600	F4.18.4 (antibody, human IgG1, kappa, V domains shown, Human-murine chimeric antibody) VH: QVQLHQSGAEMAKPGASVNLSCKTSGFTFTDYGISWVKQRTRQGLEWIGDIYPRHINIYYNEKFKDKATLTADRSSSTAYMELRSMTSEDSAVYFCARRGTTGRGALDYWGQGTSLTVSS VL: DILLTQSPAILSVSPGERVSFSCRASQSIGTSIHWYQQRTNGSPRLLIKYAFESISGIPSRFGGSGSRTDFTLTINSVESEDIADYYCQQTYNWPYTFGGGTKLEIKR
8.49	0.00231	272000	2.62	24300																hAb005LH1L1b (antibody, human IgG1, V domains shown, Humanized F3.54.12) VH: EVQLVQSGAEVKKPGASVKVSCKASGYTFTDYEMHWVRQAPGQGLEWMGAIDPETGNTAYIQKFKGRVTMTTDKSTSTAYMELRSLRSDDTAVYYCTRFYSYSHWGQGTTVTVSS VL: DIVMTQTPLSLPVTPGEPASISCRSSQSLVHSNRNTYLHWYLQKPGQSPQLLIYKVSNRFSGVPDRFSGSGSGTDFTLKISRVEAEDVGVYYCSQNTHVPPTFGGGTKVEIK
7.85	0.00213	271000	2.42	22800																hAb005LH2L1b (antibody, human IgG1, V domains shown, Humanized F3.54.12) VH: EVQLVQSGAEVKKPGASVKVSCKASGYTFTDYEMHWVRQAPGQGLEWMGAIDPETGNTAYIQKFKGRVTLTTDKSTSTAYMELRSLRSDDTAVYYCTRFYSYSHWGQGTTVTVSS VL: DIVMTQTPLSLPVTPGEPASISCRSSQSLVHSNRNTYLHWYLQKPGQSPQLLIYKVSNRFSGVPDRFSGSGSGTDFTLKISRVEAEDVGVYYCSQNTHVPPTFGGGTKVEIK
					0.04	0.06	0.05	0.1	1.41	1.65	1.08	6.58	0.000267	40600	7.81	0.000303	38800	3.25	50900	F4.21.16 (antibody, human IgG1, kappa, V domains shown, Human-murine chimeric antibody) VH: DVQLQESGPGLVKPSQSLSLTCSVTGYSITSGYYWNWIRQFPGNKLEWMGYISYDVTVNYNPSLKNRISITRDTSKNQFFLKLNSVTTEDTATYYCATITSVASMDHWGQGTSVTVSS VL: DILMTQTPLSLPVSLGDQASISCRSSQNIVHRNGNTYLEWYLQKPGQSPKLLLYKVSNRFSGVPDRFSGSGSGTDFTLKISRVEAEDLGIYYCFQGSHFPFTFGSGTKLEIKR
